Source: patent US20150376238A1 (University of Washington, published 2015)

Biological target: H3 subtype hemagglutinin (strain not stated)

Row | Binder | Kd [nM]
1 | Variant H3 24-8 (V27M, K49E) (designed binder) GTGMVAISMDTDKISNSFEDCKYFLIMVVSAGWTNTIFNDESGKKEIVEMNVDAIICKNISEENYKKFSKKIEIYHAEGDDVDKNISLFIEGELSKISNPLE | 14.8
2 | Variant H3 24-3b (V28M) (designed binder) GTGMVAISMDTDKISNSFEDCKYFLIVMVSAGWTNTIFNDESGKKEIVKMNVDAIICKNISEENYKKFSKKIEIYHAEGDDVDKNISLFIEGELSKISNPLE | 12.7
3 | Variant H3 24-3a (I2T, V29E) (designed binder) GTGMVAISMDTDKISNSFEDCKYFLIVVESAGWTNTIFNDESGKKEIVKMNVDAIICKNISEENYKKFSKKIEIYHAEGDDVDKNISLFIEGELSKISNP | 7.92
4 | Variant H3 24-2 (V27M, F38S, K49E) (designed binder) GIGMVAISMDTDKISNSFEDCKYFLIMVVSAGWTNTISNDESGKKEIVEMNVDAIICKNISEENYKKFSKKIEIYHAEGDDVDKNISLFIEGELSKISNP | 8.97
